Reference: patent US20200392225A1

T1: human NPR3 (counter target) (human) (UniProt P17342)
T1 sequence (looked up): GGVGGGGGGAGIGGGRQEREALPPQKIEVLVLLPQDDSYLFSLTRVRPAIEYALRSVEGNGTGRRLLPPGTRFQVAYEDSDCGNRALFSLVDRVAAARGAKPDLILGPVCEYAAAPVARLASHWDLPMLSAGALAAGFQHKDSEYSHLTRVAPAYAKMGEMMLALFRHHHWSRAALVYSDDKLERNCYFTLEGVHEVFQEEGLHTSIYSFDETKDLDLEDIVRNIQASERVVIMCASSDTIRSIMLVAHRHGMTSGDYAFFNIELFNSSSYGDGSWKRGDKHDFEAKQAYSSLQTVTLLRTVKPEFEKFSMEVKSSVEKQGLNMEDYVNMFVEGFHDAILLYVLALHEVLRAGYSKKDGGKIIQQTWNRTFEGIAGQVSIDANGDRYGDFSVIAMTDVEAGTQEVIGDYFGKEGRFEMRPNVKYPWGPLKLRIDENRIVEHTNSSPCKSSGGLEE

T2: human NPR3 in the presence of ANP (human) (UniProt P17342)
T2 sequence (looked up): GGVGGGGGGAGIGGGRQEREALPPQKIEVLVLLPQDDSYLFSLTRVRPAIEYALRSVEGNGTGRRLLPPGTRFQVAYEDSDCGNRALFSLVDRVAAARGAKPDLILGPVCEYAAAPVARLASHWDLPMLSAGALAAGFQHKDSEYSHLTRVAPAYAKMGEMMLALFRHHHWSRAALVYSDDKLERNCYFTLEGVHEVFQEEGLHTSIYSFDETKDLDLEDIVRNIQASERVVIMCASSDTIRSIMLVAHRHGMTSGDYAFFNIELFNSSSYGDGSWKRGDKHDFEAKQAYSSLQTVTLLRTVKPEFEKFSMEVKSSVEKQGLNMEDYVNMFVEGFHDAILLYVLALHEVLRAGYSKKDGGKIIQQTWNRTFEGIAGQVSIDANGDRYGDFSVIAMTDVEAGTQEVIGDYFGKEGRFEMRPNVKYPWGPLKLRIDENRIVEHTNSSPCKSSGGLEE
T2 sequence (peptide, looked up): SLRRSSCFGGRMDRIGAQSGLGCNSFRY

T3: rat NPR1, recombinant antigen (rat) (UniProt P18910)
T3 sequence: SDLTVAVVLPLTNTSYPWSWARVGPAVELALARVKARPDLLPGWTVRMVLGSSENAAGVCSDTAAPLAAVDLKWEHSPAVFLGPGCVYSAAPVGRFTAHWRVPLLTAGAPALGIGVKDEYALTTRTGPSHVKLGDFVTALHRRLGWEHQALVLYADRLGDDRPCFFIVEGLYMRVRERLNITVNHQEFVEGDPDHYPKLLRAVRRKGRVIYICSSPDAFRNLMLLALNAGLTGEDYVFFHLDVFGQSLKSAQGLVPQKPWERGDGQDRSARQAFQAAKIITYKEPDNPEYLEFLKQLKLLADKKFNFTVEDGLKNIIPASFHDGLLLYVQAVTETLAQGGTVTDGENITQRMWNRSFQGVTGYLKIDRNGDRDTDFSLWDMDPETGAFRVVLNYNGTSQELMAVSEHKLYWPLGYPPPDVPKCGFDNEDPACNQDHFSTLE


Tests used:
[1] = target: T1, human NPR3 (counter target) (human); test: ELISA, 1 uM IgG
[2] = target: T2, human NPR3 in the presence of ANP (human); test: ELISA, 1 uM IgG, +100 nM ANP
[3] = target: human NPR1 W74R mutant in the presence of ANP (human) (UniProt P01160); test: ELISA, 1 uM IgG, +100 nM ANP
[4] = target: human NPR1 W74R mutant in the presence of ANP (human) (UniProt P01160); test: ELISA, IgG titration, +100 nM ANP
[5] = target: human NPR1 expressed on CHO-K1 cells in the presence of ANP (human) (UniProt P01160); test: flow cytometry, 2 uM IgG, +100 nM ANP
[6] = target: T3, rat NPR1, recombinant antigen (rat); test: ELISA, 1 uM IgG
[7] = target: human NPR1 W74R mutant in the presence of ANP (human) (UniProt P01160); test: ELISA, IgG titrated on the antigen with 250 fold molar excess of ANP [cont.]

| ELISA IgG binding at 1 uM IgG (unit not given) [1] | ELISA IgG binding at 1 uM IgG (unit not given) [2] | ELISA IgG binding at 1 uM IgG (unit not given) [3] | EC50 [4] [nM] | flow cytometry S/BG [5] [S/BG] | ELISA IgG binding at 1 uM IgG (unit not given) [6] | EC50 (read off the curve) [7] [nM] | Binder |
| --- | --- | --- | --- | --- | --- | --- | --- |
| 7 | 4 | 23 | – | – | – | – | YY05 IgG (YY05_LALA) (antibody, V domains shown) VH: EVQLVQSGAEVKKPGESLKISCKGSGYSFTSYWISWVRQMPGKGLEWMGIIYPGTSYTRYSPSFQGQVTISADKSISTAYLQWSSLKASDTAMYYCARGAVAGQLGFDHWGQGTLVTVSS VL: QSVLTQPPSVSGAPGQRVTISCTGSSSNIGAGYDVHWYQQLPGTAPKLLIYGNSNRPSGVPDRFSGSKSGTSASLAITGLQAEDEADYYCQSYYTSSHGPVFGGGTKLTVLG |
| 6 | 6 | 86 | – | – | 3 | 20 | YY06 IgG (YY06_LALA) (antibody, V domains shown) VH: EVQLLESGGGLVQPGGSLRLSCAASGFTFSSYAISWVRQAPGKGLEWVSAISGSGGSTYYAESVKGRFTISRDNSKNTLYLQMNSLRAEDTAVYYCARPYLGDRRSYGFDHWGQGTLVTVSS VL: QSALTQPASVSGSPGQSITISCTGTSSDVGSYNLVSWYQQHPGKAPKLMIYEGSKRPSGVSNRFSGSKSGNTASLTISGLQAEDEADYYCSSYGFHIVVVVFGGGTKLTVLG |

Further lines, the binder ahead of its results:

| Binder | ELISA IgG binding at 1 uM IgG (unit not given) [1] | ELISA IgG binding at 1 uM IgG (unit not given) [2] | ELISA IgG binding at 1 uM IgG (unit not given) [3] | EC50 [4] [nM] | flow cytometry S/BG [5] [S/BG] | ELISA IgG binding at 1 uM IgG (unit not given) [6] | EC50 (read off the curve) [7] [nM] |
| --- | --- | --- | --- | --- | --- | --- | --- |
| YY07 IgG (YY07_LALA) (antibody, V domains shown) VH: EVQLVQSGAEVKKPGESLKISCKGSGYSFTSYWISWVRQMPGKGLEWMGIIYPGTSYTRYSPSFQGQVTISADKSISTAYLQWSSLKASDTAMYYCARGSLPGLLGFDHWGQGTLVTVSS VL: QSVLTQPPSVSGAPGQRVTISCTGSSSNIGAGYDVHWYQQLPGTAPKLLIYGNSNRPNGVPDRFSGSKSGTSASLAITGLQAEDEADYYCQSYDSPTSSSVFGGGTKLTVLG | – | 5 | 20 | – | – | – | – |
| WW06 IgG (WW06_LALA) (antibody, V domains shown) VH: QVQLVQSGAEVKKPGESLKISCKGSGYSFTSYWIAWVRQMPGKGLEWMGRIDPDNSYTRYSPSFQGQVTISADKSISTAYLQWSSLKASDTAMYYCARWLSPGYALGEQPAGMDHWGQGTLVTVSS VL: DIVLTQPPSVSGAPGQRVTISCTGSSSNIGAGYAVHWYQQLPGTAPKLLIYSNNKRPSGVPDRFSGSKSGTSASLAITGLQAEDEADYYCQSYDLQKSSRVFGGGTKLTVLG | – | – | – | 0.8 | 1.1 | – | – |
